Results on 125 sequences are retold here after the supplement of paper PMC9112550, “Optimization of the antimicrobial peptide Bac7 by deep mutational scanning” (BMC Biology, 2022).

This series relates to Escherichia coli TOP10. Put plainly: shrunken log2 fold change of peptide-encoding DNA abundance (4.5 h post-induction vs induction); higher = less antimicrobial activity (less host growth inhibition). The settings on record: time post-induction: 4.5 h; library: site-saturation at positions 5, 18, 19, 20.
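Further: peptides expressed intracellularly from a pBAD plasmid library in pooled LB shake-flask culture, induced with 0.3% L-arabinose, DNA abundance read by NGS, three biological replicates, DESeq2 with apeglm shrinkage.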

Regarding RRIRERPPRLPRPRPRPFTAPRP, the “shrunken log2 fold change” value was -0.227. Consider RRIRVRPPRLPRPRPRPKQTPRP, for which the “shrunken log2 fold change” value was -0.0483.

Turning to RRIRWRPPRLPRPRPRPPNRPRP, the “shrunken log2 fold change” value worked out at 0.148. Regarding RRIRMRPPRLPRPRPRPGIVPRP, the “shrunken log2 fold change” value turned out to be 0.332. Under RRIRWRPPRLPRPRPRPQMGPRP stands -0.124.

On to RRIRRRPPRLPRPRPRPRVWPRP, for which the “shrunken log2 fold change” value was determined as 0.686. Under RRIRFRPPRLPRPRPRPCDHPRP stands -0.0275; under RRIRIRPPRLPRPRPRPHREPRP, -0.0487. With RRIRKRPPRLPRPRPRPMEHPRP, the “shrunken log2 fold change” value is -0.0568. Under RRIRNRPPRLPRPRPRPTWTPRP stands 0.201; under RRIRERPPRLPRPRPRPLLSPRP, -0.206; under RRIRGRPPRLPRPRPRPRLMPRP, 0.617. Regarding RRIRWRPPRLPRPRPRPARHPRP, the “shrunken log2 fold change” value was 0.31. As to RRIRDRPPRLPRPRPRPRAGPRP, the “shrunken log2 fold change” value came out at 0.741. To RRIRNRPPRLPRPRPRPCKCPRP belongs 0.00489; to RRIRTRPPRLPRPRPRPVWKPRP, -0.026; to RRIRPRPPRLPRPRPRPWCKPRP, -0.162. Under RRIRTRPPRLPRPRPRPFSGPRP stands -0.0204. On to RRIRNRPPRLPRPRPRPSFKPRP, for which the “shrunken log2 fold change” value is -0.25. As to RRIRHRPPRLPRPRPRPKKCPRP, the “shrunken log2 fold change” value was -0.225. To RRIRVRPPRLPRPRPRPEQKPRP belongs -0.0196; to RRIRSRPPRLPRPRPRPETYPRP, -0.293; to RRIRHRPPRLPRPRPRPRAEPRP, 0.12. On to RRIRSRPPRLPRPRPRPFRCPRP, for which the “shrunken log2 fold change” value is -0.148. On to RRIRLRPPRLPRPRPRPSYPPRP, for which the “shrunken log2 fold change” value was -0.472. To RRIRNRPPRLPRPRPRPPKSPRP belongs 0.338; to RRIRVRPPRLPRPRPRPLVMPRP, -0.902. To RRIRTRPPRLPRPRPRPINLPRP belongs -0.156; to RRIRWRPPRLPRPRPRPLTCPRP, 0.0568. Under RRIRDRPPRLPRPRPRPWLQPRP stands 0.133; under RRIRPRPPRLPRPRPRPWPKPRP, -0.0311. Take RRIRWRPPRLPRPRPRPYHWPRP: the “shrunken log2 fold change” value is -0.236.

For RRIRNRPPRLPRPRPRPHQDPRP, the “shrunken log2 fold change” value is -0.297. To RRIRQRPPRLPRPRPRPKWWPRP belongs -0.0687; to RRIRIRPPRLPRPRPRPPDRPRP, 0.109.

In the case of RRIRWRPPRLPRPRPRPHGRPRP, the “shrunken log2 fold change” value is 0.0589. In the case of RRIRLRPPRLPRPRPRPWSCPRP, the “shrunken log2 fold change” value is -0.136. To RRIRLRPPRLPRPRPRPLKHPRP belongs -0.161; to RRIRLRPPRLPRPRPRPHSAPRP, -0.202; to RRIRLRPPRLPRPRPRPLWDPRP, 0.466.

As to RRIRRRPPRLPRPRPRPKKSPRP, the “shrunken log2 fold change” value turned out to be 0.237.

As to RRIRVRPPRLPRPRPRPMHNPRP, the “shrunken log2 fold change” value was -0.268. Under RRIRQRPPRLPRPRPRPFNTPRP stands -0.29. To RRIRTRPPRLPRPRPRPFHMPRP belongs -0.13. To RRIRFRPPRLPRPRPRPAKWPRP belongs 0.0975; to RRIRQRPPRLPRPRPRPIVEPRP, 0.0141. As for RRIRERPPRLPRPRPRPPDDPRP, the “shrunken log2 fold change” value amounted to 0.103. To RRIRYRPPRLPRPRPRPTHWPRP belongs 0.272; to RRIRIRPPRLPRPRPRPICEPRP, -0.0283; to RRIRGRPPRLPRPRPRPDGQPRP, 0.175.

On to RRIRLRPPRLPRPRPRPRFMPRP, for which the “shrunken log2 fold change” value is -0.244.

For the sequence RRIRPRPPRLPRPRPRPPNAPRP, the “shrunken log2 fold change” value was 0.435. On to RRIRDRPPRLPRPRPRPINDPRP, for which the “shrunken log2 fold change” value worked out at 0.0753. Under RRIRVRPPRLPRPRPRPWSHPRP stands -0.125. To RRIRSRPPRLPRPRPRPHMSPRP belongs -0.223.

Turning to RRIRKRPPRLPRPRPRPNMLPRP, the “shrunken log2 fold change” value was -0.0107. Under RRIRTRPPRLPRPRPRPHSDPRP stands -0.00801.

Regarding RRIRSRPPRLPRPRPRPDEVPRP, the “shrunken log2 fold change” value amounted to 0.0037. Take RRIRIRPPRLPRPRPRPEEHPRP: the “shrunken log2 fold change” value was 0.023. To RRIRFRPPRLPRPRPRPTICPRP belongs -0.288; to RRIRSRPPRLPRPRPRPDGRPRP, 0.0253. Under RRIRYRPPRLPRPRPRPPRYPRP stands -0.226. Under RRIRSRPPRLPRPRPRPCVSPRP stands -0.391; under RRIRARPPRLPRPRPRPSAKPRP, 0.471; under RRIRPRPPRLPRPRPRPHWYPRP, -0.165.

As for RRIRQRPPRLPRPRPRPDTEPRP, the “shrunken log2 fold change” value is 0.0371. Under RRIRVRPPRLPRPRPRPTGFPRP stands 0.0174. To RRIRSRPPRLPRPRPRPCCYPRP belongs 0.145. To RRIRYRPPRLPRPRPRPENYPRP belongs -0.0233; to RRIRARPPRLPRPRPRPITAPRP, 0.232; to RRIRTRPPRLPRPRPRPAQSPRP, 0.343. For RRIRMRPPRLPRPRPRPWHIPRP, the “shrunken log2 fold change” value was -0.0015.

Take RRIRCRPPRLPRPRPRPRVQPRP: the “shrunken log2 fold change” value came out at 0.241.

For the sequence RRIRMRPPRLPRPRPRPTRRPRP, the “shrunken log2 fold change” value came to 1.14. Regarding RRIRLRPPRLPRPRPRPESTPRP, the “shrunken log2 fold change” value was 0.0274. To RRIRIRPPRLPRPRPRPQDSPRP belongs -0.269. To RRIRARPPRLPRPRPRPIWVPRP belongs 0.226; to RRIRLRPPRLPRPRPRPDFQPRP, 0.157.

As for RRIRYRPPRLPRPRPRPNPCPRP, the “shrunken log2 fold change” value is -0.0242. RRIRRRPPRLPRPRPRPAMIPRP: the “shrunken log2 fold change” value is 0.0243. For RRIRNRPPRLPRPRPRPPQAPRP, the “shrunken log2 fold change” value is 0.0708. Under RRIRVRPPRLPRPRPRPWFDPRP stands -0.439; under RRIRWRPPRLPRPRPRPCPAPRP, -0.0319. To RRIRVRPPRLPRPRPRPRKTPRP belongs 0.0951; to RRIRPRPPRLPRPRPRPKWFPRP, 0.0432; to RRIRYRPPRLPRPRPRPFFHPRP, -1.2. To RRIRYRPPRLPRPRPRPNMDPRP belongs -1.3. With RRIRDRPPRLPRPRPRPLEWPRP, the “shrunken log2 fold change” value is 0.421. To RRIRIRPPRLPRPRPRPGYHPRP belongs -0.298; to RRIRWRPPRLPRPRPRPEPEPRP, 0.838; to RRIRARPPRLPRPRPRPARLPRP, 0.582.

For RRIRPRPPRLPRPRPRPRFYPRP, the “shrunken log2 fold change” value was 0.0111. Under RRIRQRPPRLPRPRPRPRHEPRP stands -0.131. Under RRIRLRPPRLPRPRPRPPDMPRP stands -0.111; under RRIRIRPPRLPRPRPRPYINPRP, -1.08; under RRIRTRPPRLPRPRPRPSMCPRP, -0.377.

For the sequence RRIRTRPPRLPRPRPRPYMWPRP, the “shrunken log2 fold change” value was -0.233. RRIRVRPPRLPRPRPRPVEVPRP: the “shrunken log2 fold change” value was -0.0382. On to RRIRFRPPRLPRPRPRPCGIPRP, for which the “shrunken log2 fold change” value was -0.168. Take RRIRLRPPRLPRPRPRPTYAPRP: the “shrunken log2 fold change” value was -0.167. Under RRIRKRPPRLPRPRPRPGSQPRP stands 0.359. On to RRIRQRPPRLPRPRPRPDDSPRP, for which the “shrunken log2 fold change” value is -0.139. To RRIRLRPPRLPRPRPRPMWFPRP belongs 0.106; to RRIRYRPPRLPRPRPRPCRFPRP, -0.241. To RRIRWRPPRLPRPRPRPYPSPRP belongs -0.0856. To RRIRMRPPRLPRPRPRPCVWPRP belongs 0.245. Turning to RRIRLRPPRLPRPRPRPQHEPRP, the “shrunken log2 fold change” value was -0.0398. Under RRIRARPPRLPRPRPRPSLFPRP stands 0.349; under RRIRSRPPRLPRPRPRPTAQPRP, 0.405. Under RRIRARPPRLPRPRPRPHTMPRP stands -0.0952; under RRIRLRPPRLPRPRPRPPMLPRP, -0.0338. Under RRIRLRPPRLPRPRPRPKGHPRP stands -0.0999; under RRIRHRPPRLPRPRPRPNKDPRP, -0.507. Turning to RRIRLRPPRLPRPRPRPEQMPRP, the “shrunken log2 fold change” value came to 0.126. To RRIRTRPPRLPRPRPRPDQFPRP belongs -0.00188; to RRIRNRPPRLPRPRPRPNWHPRP, -0.111; to RRIRPRPPRLPRPRPRPCHYPRP, -0.146.

Regarding RRIRERPPRLPRPRPRPCAIPRP, the “shrunken log2 fold change” value is -0.15. Under RRIRARPPRLPRPRPRPPMTPRP stands 0.88; under RRIRLRPPRLPRPRPRPYSYPRP, -0.977. To RRIRCRPPRLPRPRPRPAPAPRP belongs 0.84. With RRIRWRPPRLPRPRPRPLRIPRP, the “shrunken log2 fold change” value amounted to 0.148.

RRIRERPPRLPRPRPRPEGFPRP: the “shrunken log2 fold change” value was -0.00351. To RRIRRRPPRLPRPRPRPMVFPRP belongs 0.182.

In the case of RRIRMRPPRLPRPRPRPNFEPRP, the “shrunken log2 fold change” value was found to be 0.422.
